These results are taken from the nanobody polyreactivity screen of Harvey et al. (2022).

The nature of the series: yeast display, Sf9 membrane polyspecificity reagent, FACS + sequencing; frameworks hold sequencing errors. Put shortly:
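Using colony PCR, genes from sorted yeast display clones were amplified, then sequenced on MiSeq at 2 × 250 and filtered by CDR length. The clones had been stained with 10% biotinylated, detergent-solubilized Sf9 membrane reagent for 1 hour at 4 °C and sorted by FACS into low and high (top ~1%) gates on anti-HA and streptavidin fluorescence. Polyreactivity labels come from the gate of origin.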
Take “QVQLVESGGGLVQAGGSLRLSCAASGFTFFSNAMGWYRQAPGKERELVAAITSSGGSTYADSVKGRFTISRDNAKNTVYLQMNSLKPEDTAVYYCAAELYDYGDLYYSEYDYWGQGTQVTVSS”: the “polyreactivity (PSR sort gate)” value was “low polyreactivity”. Consider “QVQLVESGGGLVQAGGSLRLSCAASGFTFFTNAMGWYRKAPGKEREFVAAISGSGSRTYYADSVKGRFTISRDNAKNTVYLQMNSLIPEDTAVYYCAARVRGVYPFDYWGQGTQVTVSS”, for which the “polyreactivity (PSR sort gate)” value is reported as “high polyreactivity”.

As for “QVQLVESGGGLVQAGGSLRLSCAASGFTFFTYAMGWYRQAPGKERELVAAITSGGSTNYADSVKGRFTISRDNAKNTVYLQMNSLKPEDTAVYYCATRAYSDATTFYGYQRSDSWGQGTQVTVSS”, the “polyreactivity (PSR sort gate)” value is “low polyreactivity”. For the sequence “QVQLVESGGGLVQAGGSLRLSCAASGFTFFVSAMGWYRQAPRKERELVAVITSGGTTNYADSVKGRFTISRDIAKKTVYLQMNSLKPEDTAVYYCNGRGEKRGYYYWGQGTQVSVSS”, the “polyreactivity (PSR sort gate)” value is “high polyreactivity”. Turning to “QVQLVESGGGLVQAGGSLRLSCAASGFTFFYNAMGWYRQAPGKEREFVAAISGRGGTTYYADSVKGRFTISRDNAKNTVYLQMNSLKPEDTAVYYCNAGSSPIRQYYGQVWKKGGYWGQGTQVTVSS”, the “polyreactivity (PSR sort gate)” value was “high polyreactivity”. Turning to “QVQLVESGGGLVQAGGSLRLSCAASGFTFGANVMGWYRQAPGKERELVAGITWSGDSTYYADSVKGRFTISRDNAKNTVYLQMNSLKPDDTAVYYCAADVYDGEYILDYDYWGQGTQVTVSS”, the “polyreactivity (PSR sort gate)” value is recorded as “low polyreactivity”.

On to “QVQLVESGGGLVQAGGSLRLSCAASGFTFGAYAMGWYRHAPGKERELVAAINRRGGSTYYADSVKGRFTISRENAKNTVYLQMKSLKPEDTAVYYCNAPFGYDYWGQGTQVTVSS”, for which the “polyreactivity (PSR sort gate)” value is reported as “high polyreactivity”. As for “QVQLVESGGGLVQAGGSLRLSCAASGFTFGAYAMGWYRQAPGKERELVAAITGSGGNTFYADSVKGRFTISRDNAKNSVYLEMNCLKTEDTAVYYCAKTWYPWSRYGYYRRYDSWGQGTQVTVSS”, the “polyreactivity (PSR sort gate)” value is “low polyreactivity”. To “QVQLVESGGGLVQAGGSLRLSCAASGFTFGDYAMGRYRPEPGKERELVAAISSGGNTNYADSVKGRFTISRDNAKHTVYLQMNRLKPEDTAVNNCAPRRQSKGYKLNYWGHGTQVTVSS” belongs “high polyreactivity”; to “QVQLVESGGGLVQAGGSLRLSCAASGFTFGFYAMGRYRQAPGKERELVARISYSGGSTYYADSVKGRFTISRDKAKNTVYLQMNSLKPEDTAVYYCNRGYRRLQEDYWGQGTQVTVSS”, “high polyreactivity”; to “QVQLVESGGGLVQAGGSLRLSCAASGFTFGFYAMGWYRQAPGKERELVAAISGSGGRTYYADSVKGRFTISRDNAKNTVYLQMNSLKPEDTAVYYCAARWQRKSNGDEDYWGQGTQVTVSS”, “high polyreactivity”. In the case of “QVQLVESGGGLVQAGGSLRLSCAASGFTFGFYAMGWYRQAPGKERELVAAISKRGGSTYYADSVKGRFTISRDNAKNTVYLQMNSLKPEDTAVYYCAAVYTQSRGWEYDYWGQGTQVTVSS”, the “polyreactivity (PSR sort gate)” value is reported as “high polyreactivity”.

Consider “QVQLVESGGGLVQAGGSLRLSCAASGFTFGGNVMGWYRQAPGKERELVAAISSSGGSTYYADSVKGRFTISRDNAKNTVYLQMNSLKPEDTAVYYCAATTYGWWGYQYDYWGQGTQVTVSS”, for which the “polyreactivity (PSR sort gate)” value is recorded as “high polyreactivity”.

For the sequence “QVQLVESGGGLVQAGGSLRLSCAASGFTFGGYAMGCYRQAPGKESELVAAISGRGGRTYYADSVKGRFTISRDNAKNTVYLQMNSLKPEDTAVYYCAAPTNHWTRLSGDYWGQGTQVTVSS”, the “polyreactivity (PSR sort gate)” value was “high polyreactivity”. To “QVQLVESGGGLVQAGGSLRLSCAASGFTFGGYAMGWYRQAPGKERELVARIRRSGGSTYYADSVKGRFTISRDNAKNTVYLQMNSLKPEDTAVYYCAAGYSRGQYRYNYWGQGTQVTVSS” belongs “high polyreactivity”. As to “QVQLVESGGGLVQAGGSLRLSCAASGFTFGHYAMGWSRQAPGKERELVAAISKSGTRTYYADSVKGRFTISRDNAKNTVYLQMNSLKPEDTAVYYCATTAYNGYDHWGQGTQVTVSS”, the “polyreactivity (PSR sort gate)” value is “high polyreactivity”. The value for “QVQLVESGGGLVQAGGSLRLSCAASGFTFGLYAMGWYRQAPGKERELVAAITSGGRTYYADSVKGRFTISRDNAKNTVYFQMNSLNPEDSAVYYCNADFFNAYLWYPGYESGFDYWGQCTQVTVSS” was “low polyreactivity”; that for “QVQLVESGGGLVQAGGSLRLSCAASGFTFGNNAMGWYRQAPGKERELVAGISRTGGRTYYADSVKGRYTISRDNAKNTVYFQMNSLKPEDTGVYYCNADSTLYTGYDYWGQGTQVTVSS” was “high polyreactivity”; that for “QVQLVESGGGLVQAGGSLRLSCAASGFTFGNNGMGWYRQAPGKERELVATISWSGGSTYADSVKGRFTISRDNAKNTVDLQMNSLKPEDTAVYYCAARYFVYYLEVDYWGQGTQVTVSS” was “low polyreactivity”. Regarding “QVQLVESGGGLVQAGGSLRLSCAASGFTFGNYAMGWYRQAQGKERELVDAISGSGGSTYYADSVKGRFTISRYNAKNTVYLQMNSLKPEDTAVYYCAARYWVTYWPDYYYWGQGTQVTVPS”, the “polyreactivity (PSR sort gate)” value is “high polyreactivity”. On to “QVQLVESGGGLVQAGGSLRLSCAASGFTFGPYAMGWYRQAPGNEMELVAGITWSGASTYYADSVKGRFTISRDNAKNTVYLQMNSLNPEDSAVYYCARYYRLVSRYDYWGQGRQVTVSS”, for which the “polyreactivity (PSR sort gate)” value is listed as “low polyreactivity”. For the sequence “QVQLVESGGGLVQAGGSLRLSCAASGFTFGPYVKGWYRQAPGKERELVAAISKSGGSTYYADSVKGRFTISRDYAKNTVYLQMNSLKPEDTAVYYCATDYLGGGKRYYYWGQGTQVTVSS”, the “polyreactivity (PSR sort gate)” value is “high polyreactivity”. As to “QVQLVESGGGLVQAGGSLRLSCAASGFTFGQYAMGWYRQAPGKERELVAAIRWSGGSSYYADSVKGRFTISRDNAKNTVYLQMNSLKPEDTAVYYCAARRFDGYEYDYWGQGTQVTVSS”, the “polyreactivity (PSR sort gate)” value is on record as “low polyreactivity”. As to “QVQLVESGGGLVQAGGSLRLSCAASGFTFGQYAMGWYRQAPGKERELVAAITGSGGRTYYADSVKGRFTISRDNAKNTVYLQMNSLKPEDTAVYYCNARVPLRHYSNYYWGQGTQVTVSS”, the “polyreactivity (PSR sort gate)” value is listed as “high polyreactivity”. With “QVQLVESGGGLVQAGGSLRLSCAASGFTFGRNAMGWYRQEPGKERELVATISKSGGSTYYADSVKGRFTISRDNAKNTVYVQMNSLKPEDTAVYYCADRSRRLPGDYWGQGTQVTVSS”, the “polyreactivity (PSR sort gate)” value is reported as “low polyreactivity”. To “QVQLVESGGGLVQAGGSLRLSCAASGFTFGRTVRGWYRQAPGKERELVAAISSSGGSTYYADSVKGRFTISRDNAKNTVYLQMNSLKPEDTAVYYCAAVLVSWYRNPQYDYWGQGTQVTVSS” belongs “high polyreactivity”. On to “QVQLVESGGGLVQAGGSLRLSCAASGFTFGRYALGWYRQAPGKERELVAAISFSGGRTYYADSVKGRFTISRDKAKNTVYLQMNSLKPEDTAVYYCAARRRQEHVGRSSYARYDYWGQGTQVTVSS”, for which the “polyreactivity (PSR sort gate)” value is given as “high polyreactivity”. For “QVQLVESGGGLVQAGGSLRLSCAASGFTFGRYAMGWYRQAPGKERELVAGISSGGRTNYADSVKGRFTISRDNAKNTVYLQMNSLKPEDTAVYYCNARWYRYPPRVRLYYWGQGTQVTVSS”, the “polyreactivity (PSR sort gate)” value is reported as “high polyreactivity”. “QVQLVESGGGLVQAGGSLRLSCAASGFTFGSNAMGWYRQAPGKERELVAAISYSGTRTYYADSVKGRFTISRDNAKNTVYLQMNRLKPEDTAVNYCAAGFRKTQFNVRYDYWGQGTQVTVSS”: the “polyreactivity (PSR sort gate)” value was “high polyreactivity”. Take “QVQLVESGGGLVQAGGSLRLSCAASGFTFGSNAMGWYRQAPGKERELVAAITWDGGSTYYADSVKGRFTISRDNAKNTVYLQMNSLKPEDTAVYYCARYLYATYGKYNYWGQGTQVTVSS”: the “polyreactivity (PSR sort gate)” value was “high polyreactivity”. For the sequence “QVQLVESGGGLVQAGGSLRLSCAASGFTFGSNTMGWYRQAPGKERELVAAITTSGDSTYYADSVKGRFTISRDHAKNTVYLQMNSLKPEDTAVYYCAAERRYGRYYRLVRLLGQGTQVTVSS”, the “polyreactivity (PSR sort gate)” value is “high polyreactivity”. For the sequence “QVQLVESGGGLVQAGGSLRLSCAASGFTFGSNTMGWYRQAPGKERELVAAITYTGGRTYYADSVKGRFTISRDNAKNTVYLQMNSLKPEDTAVYYCAAEYHFWSYSPGYDYWGQGTQVTVSS”, the “polyreactivity (PSR sort gate)” value was “high polyreactivity”.

Consider “QVQLVESGGGLVQAGGSLRLSCAASGFTFGSNVMGWYRQAPGKERELVAAIRGRGGSTYSADSVKGRFTISRDNAKNTVYLQMNSLKPEDTAVYYCNAVQRYQMGYCGQGTQVTVSS”, for which the “polyreactivity (PSR sort gate)” value was “high polyreactivity”. As to “QVQLVESGGGLVQAGGSLRLSCAASGFTFGSYAMGWYRQAPGKEREFVAAIRRSGSSTYYADSVKGRFTISRDYAKNTVYLQMNSLKPEDTAVYYCAADVYRRLRRYRYYYWGQGTQVTVSS”, the “polyreactivity (PSR sort gate)” value was “low polyreactivity”. For the sequence “QVQLVESGGGLVQAGGSLRLSCAASGFTFGSYAMGWYRQAPGKERELVARISSDGSTNYAVSVNGRFTISRDNAKNTVYLQMNSLKPEDTAVYYCAADPVHRFPGTGGYWGQGTQVTVSS”, the “polyreactivity (PSR sort gate)” value was “low polyreactivity”. To “QVQLVESGGGLVQAGGSLRLSCAASGFTFGSYAMGWYRQAPGKERELVAVITRSGRTNYADSVKGRFTISRDNAKNTVYLLMNSLKPEDTAVYYCNADDVDDEVSPDLTEMDYWGQGTQVTVSS” belongs “low polyreactivity”. Regarding “QVQLVESGGGLVQAGGSLRLSCAASGFTFGSYAMGWYRQAPGKERELVAVITRSGRTNYADSVKGRFTISRDNAKNTVYLQMNSLKPEDTAVYYCNADDVDDEVSPDLTEMDYWGQGTQVTVSS”, the “polyreactivity (PSR sort gate)” value is listed as “low polyreactivity”. In the case of “QVQLVESGGGLVQAGGSLRLSCAASGFTFGSYAMGWYRQAPGTERELVAAISCSGGSTYYADSVKGRFTISRDNAKNTVYLQMNSLKPEDTAVYYCAVRYPLYRMDYWGQGTQVTVSS”, the “polyreactivity (PSR sort gate)” value is on record as “high polyreactivity”. As to “QVQLVESGGGLVQAGGSLRLSCAASGFTFGTNAMGWYRQAPGKEMELVAAITWSGGRTYYADSVKGRFTISRDNAKNTVYLQMNSRKQEDTAVYYCAKQYYRNKYEYWGQGTQVTVSS”, the “polyreactivity (PSR sort gate)” value is listed as “high polyreactivity”. Consider “QVQLVESGGGLVQAGGSLRLSCAASGFTFGTYAMGWYRPAPGKERELVAAITRRGDNTYYADSVKGRFTISRDNAKNTVYLQMNSLNPEDTAVYYCIAAKGGRYPDYDYWGQGTQVTVSS”, for which the “polyreactivity (PSR sort gate)” value is “high polyreactivity”.

In the case of “QVQLVESGGGLVQAGGSLRLSCAASGFTFGTYAMGWYRQAPGKERELVASIRTDDSTYADSVKGRFTISRDNAKNTVYLQMNSLKPEDTAVYYCAVDGYVIYVYDTYDYWGQGTQVTVSS”, the “polyreactivity (PSR sort gate)” value is “low polyreactivity”.
